± gives the uncertainty stated by the source.
Assay: self-splicing fitness, log relative to wild type (ln ratio); higher = more splicing; Tetrahymena group I intron in knt gene, E. coli kanamycin selection, DiMSum; sequences stand for … in CUCUCU…GGAGGGAAAAGUUAUCAGGCAUGCACCUGGUAGCUAGUCUUUAAACCAAUAGAUUGCAUCGGUUUAAAAGGCAAGACCGUCAAAUUGCGGGAAAGGGGUCAACAGCCGUUCAGUACCAAGUCUCAGGGGAAACUUUGAGAUGGCCUUGCAAAGGGUAUGGUAAUAAGCUGACGGACAUGGUCCUAACCACGCAGCCAAGUCCUAAGUCAACAGAUCUUCUGUUGAUAUGGAUGCAGUUCACAGACUAAAUGUCGGUCGGGGAAGAUGUAUUCUUCUCAUAAGAUAUAGUCGGACCUCUCCUUAAUGGGAGCUAGCGGAUGAAGUGAUGCAACACUGGAGCCGCUGGGAACUAAUUUGUAUGCGAAAGUAUAUUGAUUAGUUUUGGAGUACUCGUGGUCG
In short: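 Library with all eight P1ex-region intron nucleotides randomised, intron inside the knt kanamycin-resistance gene on pET-22b(+), in E. coli BL21(DE3). Cells grew overnight at 37°C or 30°C on LB agar with or without 25 μg/mL kanamycin (plus 100 μg/mL carbenicillin, 50 μM IPTG, 0.2% rhamnose), in six replicate transformations. Pooled colonies were amplicon-sequenced on Illumina HiSeq 2500. DiMSum fitness is the error-weighted combination of wild-type-normalised replicate fold changes, kanamycin versus none.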

| Sequence | self-splicing fitness (ln) (30 °C) | self-splicing fitness (ln) (37 °C) |
| --- | --- | --- |
| ACCUAGCAAUAUUACGUCCA | -1.53 ± 0.098 | -0.615 ± 0.094 |
| ACCUAGCAAUAUUACGUCCC | -1.37 ± 0.26 |  |
| ACCUAGCAAUAUUACGUCGA | -2.29 ± 0.093 | -0.834 ± 0.091 |
| ACCUAGCAAUAUUACGUGAC | -3.2 ± 0.12 | -0.892 ± 0.11 |
| ACCUAGCAAUAUUACGUGGC | -3.35 ± 0.21 | -2.02 ± 0.21 |
| ACCUAGCAAUAUUACGUUAG | -3.59 ± 0.14 | -2.69 ± 0.19 |
| ACCUAGCAAUAUUACGUUAU | -2.43 ± 0.11 | -1.53 ± 0.11 |
| ACGAAGCAAUAUUACGAACA | -1.62 ± 0.13 | -0.229 ± 0.11 |
| ACGAAGCAAUAUUACGAAGA | -3.07 ± 0.25 | -3.2 ± 0.37 |
| ACGAAGCAAUAUUACGAAUC | -3.29 ± 0.2 | -2.9 ± 0.25 |
| ACGAAGCAAUAUUACGACUA | -0.269 ± 0.083 | -0.184 ± 0.081 |
| ACGAAGCAAUAUUACGAGCA | -2.84 ± 0.14 | -1.32 ± 0.12 |
| ACGAAGCAAUAUUACGAUGG | -2.34 ± 0.13 | -1.17 ± 0.12 |
| ACGAAGCAAUAUUACGCAUU | -3.42 ± 0.12 | -1.95 ± 0.096 |
| ACGAAGCAAUAUUACGCCCG | -0.0902 ± 0.13 | -0.0289 ± 0.14 |
| ACGAAGCAAUAUUACGCGAG | -1.48 ± 0.12 | -0.723 ± 0.11 |
| ACGAAGCAAUAUUACGCGGC | -2.63 ± 0.35 | -2.22 ± 0.24 |
| ACGAAGCAAUAUUACGCGUC | -3.76 ± 0.21 | -1.91 ± 0.19 |
| ACGAAGCAAUAUUACGCUCU | -1.35 ± 0.094 | -0.15 ± 0.1 |
| ACGAAGCAAUAUUACGGACA | -0.643 ± 0.14 | -0.915 ± 0.15 |
| ACGAAGCAAUAUUACGGACU | 0.0455 ± 0.045 | 0.53 ± 0.065 |
| ACGAAGCAAUAUUACGGAUG | -2.82 ± 0.13 | -1.44 ± 0.11 |
| ACGAAGCAAUAUUACGGCAA | -1.04 ± 0.13 | -0.678 ± 0.13 |
| ACGAAGCAAUAUUACGGGAC | -4.36 ± 0.24 | -2.68 ± 0.18 |
| ACGAAGCAAUAUUACGGUGC | -4.82 ± 0.27 | -3.17 ± 0.2 |

| Sequence | self-splicing fitness (ln) (30 °C) | self-splicing fitness (ln) (37 °C) |
| --- | --- | --- |
| ACGAAGCAAUAUUACGGUUG | -2.29 ± 0.07 | -1.31 ± 0.081 |
| ACGAAGCAAUAUUACGUACA | -2.13 ± 0.13 | -1.06 ± 0.12 |
| ACGAAGCAAUAUUACGUCUC | -3.62 ± 0.12 | -1.55 ± 0.087 |
| ACGAAGCAAUAUUACGUGAG | -0.888 ± 0.056 | -1.14 ± 0.087 |
| ACGAAGCAAUAUUACGUGGC | -2.97 ± 0.11 | -2.04 ± 0.14 |
| ACGAAGCAAUAUUACGUUUU | -4.13 ± 0.16 | -1.8 ± 0.11 |
| ACGCAGCAAUAUUACGAAGA |  | -1.43 ± 0.26 |
| ACGCAGCAAUAUUACGCCUA | -0.946 ± 0.088 | 0.0129 ± 0.093 |
| ACGCAGCAAUAUUACGCUCG | -2.56 ± 0.12 | -1.67 ± 0.16 |
| ACGCAGCAAUAUUACGGACA | -1.29 ± 0.13 | -1.13 ± 0.14 |
| ACGCAGCAAUAUUACGGAGA | -2.66 ± 0.3 | -2.41 ± 0.2 |
| ACGCAGCAAUAUUACGGCCU | 0.271 ± 0.063 | 0.881 ± 0.091 |
| ACGCAGCAAUAUUACGGCUG | -3.03 ± 0.16 | -3.01 ± 0.22 |
| ACGCAGCAAUAUUACGGUAC | -1.03 ± 0.18 | -2.48 ± 0.45 |
| ACGCAGCAAUAUUACGGUUC | -3.63 ± 0.22 | -1.89 ± 0.15 |
| ACGCAGCAAUAUUACGUACC | -1.46 ± 0.24 | -0.295 ± 0.26 |
| ACGCAGCAAUAUUACGUACG | -2.93 ± 0.15 | -0.983 ± 0.13 |
| ACGCAGCAAUAUUACGUCCU | -0.15 ± 0.058 | 0.354 ± 0.07 |
| ACGCAGCAAUAUUACGUCGG | -1.23 ± 0.067 | -1.14 ± 0.1 |
| ACGCAGCAAUAUUACGUCUU | -1.36 ± 0.065 | -1.27 ± 0.083 |
| ACGCAGCAAUAUUACGUGAC | -3.45 ± 0.25 | -2.3 ± 0.21 |
| ACGCAGCAAUAUUACGUGCG | -3.58 ± 0.13 | -2.85 ± 0.15 |
| ACGCAGCAAUAUUACGUUUA | -2.58 ± 0.12 | -1.42 ± 0.095 |
| ACGGAGCAAUAUUACGAAGC | -4.24 ± 0.39 | -2.4 ± 0.18 |
| ACGGAGCAAUAUUACGAUAA | -3.89 ± 0.23 | -2.72 ± 0.21 |

| Sequence | self-splicing fitness (ln) (30 °C) | self-splicing fitness (ln) (37 °C) |
| --- | --- | --- |
| ACGGAGCAAUAUUACGAUCG | -0.961 ± 0.088 | -1.14 ± 0.14 |
| ACGGAGCAAUAUUACGAUUG | -3.04 ± 0.25 | -1.43 ± 0.22 |
| ACGGAGCAAUAUUACGCCCG |  | 0.0539 ± 0.32 |
| ACGGAGCAAUAUUACGCGAG | -2.86 ± 0.13 | -1.35 ± 0.13 |
| ACGGAGCAAUAUUACGGAUU | -3.94 ± 0.31 | -0.896 ± 0.16 |
| ACGGAGCAAUAUUACGGGCG | -2.12 ± 0.19 | -0.224 ± 0.19 |
| ACGGAGCAAUAUUACGGUAC | -4.95 ± 0.36 | -2.3 ± 0.22 |
| ACGGAGCAAUAUUACGGUCG | -2.48 ± 0.11 | -0.856 ± 0.11 |
| ACGGAGCAAUAUUACGGUGG | -3.07 ± 0.18 | -2.22 ± 0.26 |
| ACGGAGCAAUAUUACGGUUC | -4.29 ± 0.37 | -1.32 ± 0.22 |
| ACGGAGCAAUAUUACGUAAU | -3.61 ± 0.41 | -2.39 ± 0.48 |
| ACGGAGCAAUAUUACGUGAA | -2.95 ± 0.15 | -2.35 ± 0.19 |
| ACGGAGCAAUAUUACGUGGG | -3.99 ± 0.18 | -2.29 ± 0.15 |
| ACGGAGCAAUAUUACGUGUC | -4.54 ± 0.46 | -1.8 ± 0.18 |
| ACGUAGCAAUAUUACGAAGC |  | -1.96 ± 0.41 |
| ACGUAGCAAUAUUACGAAUA | -2.32 ± 0.17 | -1.46 ± 0.12 |
| ACGUAGCAAUAUUACGAGAA | -2.37 ± 0.26 | -3.02 ± 0.33 |
| ACGUAGCAAUAUUACGAGCU | -1.36 ± 0.12 | -1.06 ± 0.14 |
| ACGUAGCAAUAUUACGAUAC | -2.62 ± 0.12 | -2.26 ± 0.19 |
| ACGUAGCAAUAUUACGAUUG | -2.78 ± 0.11 | -1.99 ± 0.12 |
| ACGUAGCAAUAUUACGCAAA | -1.78 ± 0.21 | -2.42 ± 0.3 |
| ACGUAGCAAUAUUACGCAAU | -2.95 ± 0.17 | -1.53 ± 0.22 |
| ACGUAGCAAUAUUACGCAUG | -2.97 ± 0.15 | -0.981 ± 0.11 |
| ACGUAGCAAUAUUACGCAUU | -2.8 ± 0.17 | -0.657 ± 0.11 |
| ACGUAGCAAUAUUACGCCGC | -3.7 ± 0.46 |  |

| Sequence | self-splicing fitness (ln) (30 °C) | self-splicing fitness (ln) (37 °C) |
| --- | --- | --- |
| ACGUAGCAAUAUUACGCGAU | -3.01 ± 0.14 | -1.5 ± 0.11 |
| ACGUAGCAAUAUUACGCGGA | -2.05 ± 0.18 | -0.895 ± 0.11 |
| ACGUAGCAAUAUUACGCGUA | -2.22 ± 0.17 | -1.74 ± 0.16 |
| ACGUAGCAAUAUUACGCUUU | -1.92 ± 0.058 | -1.11 ± 0.075 |
| ACGUAGCAAUAUUACGGAAC | -2.09 ± 0.24 | -2.14 ± 0.26 |
| ACGUAGCAAUAUUACGGAUU | -2.5 ± 0.14 | -1.8 ± 0.2 |
| ACGUAGCAAUAUUACGGCCG | -0.0843 ± 0.13 | -0.11 ± 0.19 |
| ACGUAGCAAUAUUACGGGAC | -4.43 ± 0.3 | -1.45 ± 0.16 |
| ACGUAGCAAUAUUACGGUAU | -2.02 ± 0.11 | -1.56 ± 0.12 |
| ACGUAGCAAUAUUACGGUGA | -2.3 ± 0.2 | -0.727 ± 0.15 |
| ACGUAGCAAUAUUACGUAUG | -2.75 ± 0.18 | -3.33 ± 0.42 |
| ACGUAGCAAUAUUACGUCGA | -3.67 ± 0.3 | -2.72 ± 0.24 |
| ACGUAGCAAUAUUACGUCUC | -2.84 ± 0.19 | -3.13 ± 0.32 |
| ACGUAGCAAUAUUACGUGCU | -1.94 ± 0.11 | -0.828 ± 0.12 |
| ACUAAGCAAUAUUACGAAAC | -3.55 ± 0.12 | -2.3 ± 0.16 |
| ACUAAGCAAUAUUACGACUG | -0.95 ± 0.065 | -0.652 ± 0.089 |
| ACUAAGCAAUAUUACGAGCC | -3.72 ± 0.4 | -1.62 ± 0.33 |
| ACUAAGCAAUAUUACGAUCA | -1.15 ± 0.072 | -0.58 ± 0.073 |
| ACUAAGCAAUAUUACGAUUU | -0.208 ± 0.062 | -0.0751 ± 0.09 |
| ACUAAGCAAUAUUACGCACC | -0.776 ± 0.12 | -0.198 ± 0.13 |
| ACUAAGCAAUAUUACGCAUU | -1.82 ± 0.11 | -0.321 ± 0.12 |
| ACUAAGCAAUAUUACGCCAU |  | -2.01 ± 0.29 |

Source: the supplement of paper PMC7877785
